Five molecules from patent US20210139548A1 (published 2021) can be followed below.

Sequences and labels used below:
T1: human neuropeptide Y2 receptor (human, UniProt P49146 1-381)
T1 construct: whole, on cells; also called hNPY2 receptor; hNPY2-R
T1 sequence (looked up): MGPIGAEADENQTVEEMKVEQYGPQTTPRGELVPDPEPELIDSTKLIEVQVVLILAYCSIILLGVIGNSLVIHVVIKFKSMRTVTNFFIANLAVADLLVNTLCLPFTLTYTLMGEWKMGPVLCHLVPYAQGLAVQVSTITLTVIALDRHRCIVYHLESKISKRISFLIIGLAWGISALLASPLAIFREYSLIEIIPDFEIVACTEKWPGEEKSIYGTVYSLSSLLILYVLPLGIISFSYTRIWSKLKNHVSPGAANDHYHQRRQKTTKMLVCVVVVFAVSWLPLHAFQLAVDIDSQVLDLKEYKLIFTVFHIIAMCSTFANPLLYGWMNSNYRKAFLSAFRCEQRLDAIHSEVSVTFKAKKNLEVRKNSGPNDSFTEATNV

B1: Compound 115 (peptide)
peptide: Isovaleryl-APEK([AEEA-AEEA-γGlu-C18 diacid])PEEEASPEALQRYYVSLRHYYNWLTRQRY-NH2
SMILES: CC(C)CC(=O)N[C@@H](C)C(=O)N1CCC[C@H]1C(=O)N[C@@H](CCC(=O)O)C(=O)N[C@@H](CCCCNC(=O)COCCOCCNC(=O)COCCOCCNC(=O)CC[C@H](NC(=O)CCCCCCCCCCCCCCCCC(=O)O)C(=O)O)C(=O)N1CCC[C@H]1C(=O)N[C@@H](CCC(=O)O)C(=O)N[C@@H](CCC(=O)O)C(=O)N[C@@H](CCC(=O)O)C(=O)N[C@@H](C)C(=O)N[C@@H](CO)C(=O)N1CCC[C@H]1C(=O)N[C@@H](CCC(=O)O)C(=O)N[C@@H](C)C(=O)N[C@@H](CC(C)C)C(=O)N[C@@H](CCC(N)=O)C(=O)N[C@@H](CCCNC(=N)N)C(=O)N[C@@H](Cc1ccc(O)cc1)C(=O)N[C@@H](Cc1ccc(O)cc1)C(=O)N[C@H](C(=O)N[C@@H](CO)C(=O)N[C@@H](CC(C)C)C(=O)N[C@@H](CCCNC(=N)N)C(=O)N[C@@H](Cc1c[nH]cn1)C(=O)N[C@@H](Cc1ccc(O)cc1)C(=O)N[C@@H](Cc1ccc(O)cc1)C(=O)N[C@@H](CC(N)=O)C(=O)N[C@@H](Cc1c[nH]c2ccccc12)C(=O)N[C@@H](CC(C)C)C(=O)N[C@H](C(=O)N[C@@H](CCCNC(=N)N)C(=O)N[C@@H](CCC(N)=O)C(=O)N[C@@H](CCCNC(=N)N)C(=O)N[C@@H](Cc1ccc(O)cc1)C(N)=O)[C@@H](C)O)C(C)C
B2: Compound 121 (peptide)
peptide: Isovaleryl-APAK([AEEA-AEEA-γGlu-C18 diacid])PEADASPEELQRYYVSLRHYYNWLTRQRY-NH2
SMILES: CC(C)CC(=O)N[C@@H](C)C(=O)N1CCC[C@H]1C(=O)N[C@@H](C)C(=O)N[C@@H](CCCCNC(=O)COCCOCCNC(=O)COCCOCCNC(=O)CC[C@H](NC(=O)CCCCCCCCCCCCCCCCC(=O)O)C(=O)O)C(=O)N1CCC[C@H]1C(=O)N[C@@H](CCC(=O)O)C(=O)N[C@@H](C)C(=O)N[C@@H](CC(=O)O)C(=O)N[C@@H](C)C(=O)N[C@@H](CO)C(=O)N1CCC[C@H]1C(=O)N[C@@H](CCC(=O)O)C(=O)N[C@@H](CCC(=O)O)C(=O)N[C@@H](CC(C)C)C(=O)N[C@@H](CCC(N)=O)C(=O)N[C@@H](CCCNC(=N)N)C(=O)N[C@@H](Cc1ccc(O)cc1)C(=O)N[C@@H](Cc1ccc(O)cc1)C(=O)N[C@H](C(=O)N[C@@H](CO)C(=O)N[C@@H](CC(C)C)C(=O)N[C@@H](CCCNC(=N)N)C(=O)N[C@@H](Cc1c[nH]cn1)C(=O)N[C@@H](Cc1ccc(O)cc1)C(=O)N[C@@H](Cc1ccc(O)cc1)C(=O)N[C@@H](CC(N)=O)C(=O)N[C@@H](Cc1c[nH]c2ccccc12)C(=O)N[C@@H](CC(C)C)C(=O)N[C@H](C(=O)N[C@@H](CCCNC(=N)N)C(=O)N[C@@H](CCC(N)=O)C(=O)N[C@@H](CCCNC(=N)N)C(=O)N[C@@H](Cc1ccc(O)cc1)C(N)=O)[C@@H](C)O)C(C)C
B3: Compound 124 (peptide)
peptide: Isovaleryl-APEK([AEEA-AEEA-γGlu-C18 diacid])PEEDAAPEEIQRYYVSLRHYYNWLTRQRY-NH2
SMILES: CC[C@H](C)[C@H](NC(=O)[C@H](CCC(=O)O)NC(=O)[C@H](CCC(=O)O)NC(=O)[C@@H]1CCCN1C(=O)[C@H](C)NC(=O)[C@H](C)NC(=O)[C@H](CC(=O)O)NC(=O)[C@H](CCC(=O)O)NC(=O)[C@H](CCC(=O)O)NC(=O)[C@@H]1CCCN1C(=O)[C@H](CCCCNC(=O)COCCOCCNC(=O)COCCOCCNC(=O)CC[C@H](NC(=O)CCCCCCCCCCCCCCCCC(=O)O)C(=O)O)NC(=O)[C@H](CCC(=O)O)NC(=O)[C@@H]1CCCN1C(=O)[C@H](C)NC(=O)CC(C)C)C(=O)N[C@@H](CCC(N)=O)C(=O)N[C@@H](CCCNC(=N)N)C(=O)N[C@@H](Cc1ccc(O)cc1)C(=O)N[C@@H](Cc1ccc(O)cc1)C(=O)N[C@H](C(=O)N[C@@H](CO)C(=O)N[C@@H](CC(C)C)C(=O)N[C@@H](CCCNC(=N)N)C(=O)N[C@@H](Cc1c[nH]cn1)C(=O)N[C@@H](Cc1ccc(O)cc1)C(=O)N[C@@H](Cc1ccc(O)cc1)C(=O)N[C@@H](CC(N)=O)C(=O)N[C@@H](Cc1c[nH]c2ccccc12)C(=O)N[C@@H](CC(C)C)C(=O)N[C@H](C(=O)N[C@@H](CCCNC(=N)N)C(=O)N[C@@H](CCC(N)=O)C(=O)N[C@@H](CCCNC(=N)N)C(=O)N[C@@H](Cc1ccc(O)cc1)C(N)=O)[C@@H](C)O)C(C)C
B4: Compound 119 (peptide)
peptide: Isovaleryl-APEK([AEEA-AEEA-γGlu-C18 diacid])PEEEASPEELQRYYVTLRHYYNWLTRQRY-NH2
SMILES: CC(C)CC(=O)N[C@@H](C)C(=O)N1CCC[C@H]1C(=O)N[C@@H](CCC(=O)O)C(=O)N[C@@H](CCCCNC(=O)COCCOCCNC(=O)COCCOCCNC(=O)CC[C@H](NC(=O)CCCCCCCCCCCCCCCCC(=O)O)C(=O)O)C(=O)N1CCC[C@H]1C(=O)N[C@@H](CCC(=O)O)C(=O)N[C@@H](CCC(=O)O)C(=O)N[C@@H](CCC(=O)O)C(=O)N[C@@H](C)C(=O)N[C@@H](CO)C(=O)N1CCC[C@H]1C(=O)N[C@@H](CCC(=O)O)C(=O)N[C@@H](CCC(=O)O)C(=O)N[C@@H](CC(C)C)C(=O)N[C@@H](CCC(N)=O)C(=O)N[C@@H](CCCNC(=N)N)C(=O)N[C@@H](Cc1ccc(O)cc1)C(=O)N[C@@H](Cc1ccc(O)cc1)C(=O)N[C@H](C(=O)N[C@H](C(=O)N[C@@H](CC(C)C)C(=O)N[C@@H](CCCNC(=N)N)C(=O)N[C@@H](Cc1c[nH]cn1)C(=O)N[C@@H](Cc1ccc(O)cc1)C(=O)N[C@@H](Cc1ccc(O)cc1)C(=O)N[C@@H](CC(N)=O)C(=O)N[C@@H](Cc1c[nH]c2ccccc12)C(=O)N[C@@H](CC(C)C)C(=O)N[C@H](C(=O)N[C@@H](CCCNC(=N)N)C(=O)N[C@@H](CCC(N)=O)C(=O)N[C@@H](CCCNC(=N)N)C(=O)N[C@@H](Cc1ccc(O)cc1)C(N)=O)[C@@H](C)O)[C@@H](C)O)C(C)C
B5: Compound 122 (peptide)
peptide: Isovaleryl-APEK([AEEA-AEEA-γGlu-C18 diacid])PEEDAAPEELQRYYVSLRHYYNWLTRQRY-NH2
SMILES: CC(C)CC(=O)N[C@@H](C)C(=O)N1CCC[C@H]1C(=O)N[C@@H](CCC(=O)O)C(=O)N[C@@H](CCCCNC(=O)COCCOCCNC(=O)COCCOCCNC(=O)CC[C@H](NC(=O)CCCCCCCCCCCCCCCCC(=O)O)C(=O)O)C(=O)N1CCC[C@H]1C(=O)N[C@@H](CCC(=O)O)C(=O)N[C@@H](CCC(=O)O)C(=O)N[C@@H](CC(=O)O)C(=O)N[C@@H](C)C(=O)N[C@@H](C)C(=O)N1CCC[C@H]1C(=O)N[C@@H](CCC(=O)O)C(=O)N[C@@H](CCC(=O)O)C(=O)N[C@@H](CC(C)C)C(=O)N[C@@H](CCC(N)=O)C(=O)N[C@@H](CCCNC(=N)N)C(=O)N[C@@H](Cc1ccc(O)cc1)C(=O)N[C@@H](Cc1ccc(O)cc1)C(=O)N[C@H](C(=O)N[C@@H](CO)C(=O)N[C@@H](CC(C)C)C(=O)N[C@@H](CCCNC(=N)N)C(=O)N[C@@H](Cc1c[nH]cn1)C(=O)N[C@@H](Cc1ccc(O)cc1)C(=O)N[C@@H](Cc1ccc(O)cc1)C(=O)N[C@@H](CC(N)=O)C(=O)N[C@@H](Cc1c[nH]c2ccccc12)C(=O)N[C@@H](CC(C)C)C(=O)N[C@H](C(=O)N[C@@H](CCCNC(=N)N)C(=O)N[C@@H](CCC(N)=O)C(=O)N[C@@H](CCCNC(=N)N)C(=O)N[C@@H](Cc1ccc(O)cc1)C(N)=O)[C@@H](C)O)C(C)C

*1 amine or outer side, *2 acyl side, *3 side chain or, on linkers, in order; H or OH if unused. Side-chain parts run from the residue outwards. The star is where a group is joined. C18 diacid = O=C(O)CCCCCCCCCCCCCCCCC(=O)*; γGlu = O=C(O)[C@H](CCC(=O)[*:2])N[*:1]; Isovaleryl = CC(C)CC(=O)*; AEEA = NCCOCCOCC(=O)O

The target of the test is T1, human neuropeptide Y2 receptor. As to the kind of experiment: radioligand competition (125I-PYY(1-36)), hNPY2R membranes. The essentials:
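Commercial human Y2 receptor membranes (0.5 μg protein/well) were incubated with peptide for 2 h at room temperature in 50 mM HEPES, 5 mM MgCl₂, 1 mM CaCl₂, pH 7.4, with 0.2% ovalbumin. Bound radioligand was separated on PEI-soaked GF/C filters and counted by scintillation, and IC₅₀ came from nonlinear sigmoidal regression.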
One may read the Ki as a dissociation constant, usually derived from enzyme kinetics or from competition with a known ligand. Higher therefore signals weaker binding. In turn, B1 came in with a Ki of 1.94 nM.
As for B2, the figure is 0.61 nM.
As for B3, the figure is 0.5 nM.
The value for B4 was 3.32 nM; that for B5 was 1.84 nM.
